Experimental data reported in patent publication US20130171147A1.

Target: rat prolactin receptor (PRLR) on Nb2 lymphoma cells (rat) (UniProt P05710)
Assay: FACS on rat lymphoma cell line Nb2, IgG1

Binder	EC50 [nM]
001-E06 (human IgG1) (antibody, V domains shown) VH: QVELLESGGGLVQPGGSLRLSCAASGFTFSSYWMSWVRQAPGKGLEWVSSVSDTGTDTHYADSVKGRFTISRDNSKNTLYLQMNSLRAEDTAVYYCAKTPLAYSSGWYYFDYWGQGTLVTVSS VL: DIVLTQPPSASGTPGQRVTISCSGSSSNIGSNTVNWYQQLPGTAPKLLIYRNYQRPSGVPDRFSGSKSGTSASLAISGLRSEDEADYYCQSYDSSLSGSVFGGGTKLTVLG	1.2
HE06.642 (antibody, IgG1, V domains shown) VH: EVQLVESGGGLVQPGGSLRLSCAVSGFTFSSYGMSWVRQAPGKGLEWVATVSSGGTYTYYPDSVKGRFTISRDNSKNTLYLQMNSLRAEDTAVYYCARHRGNYYATYYYAMDYWGQGTLVTVSS VL: DIVLTQSPDSLAVSLGERATINCKASKSVSTSGYTYMHWYQQKPGQPPKLLIYLASNRESGVPDRFSGSGSGTDFTLTISPVQAEDVATYYCQHSGELPPSFGQGTKLEIKR	0.3
